Data set [1] concerns the target RS1 from retinal membrane extracts (bovine (endogenous in retinal membranes)). In words: non-reducing SDS gel electrophoresis with western blot. In general terms: In western blotting, separated proteins are transferred to a membrane and probed.
Data set [2] has as its target T1, wild-type RS1 (retinoschisin), secreted from HEK 293 cells (human), O15537.
T1 chain: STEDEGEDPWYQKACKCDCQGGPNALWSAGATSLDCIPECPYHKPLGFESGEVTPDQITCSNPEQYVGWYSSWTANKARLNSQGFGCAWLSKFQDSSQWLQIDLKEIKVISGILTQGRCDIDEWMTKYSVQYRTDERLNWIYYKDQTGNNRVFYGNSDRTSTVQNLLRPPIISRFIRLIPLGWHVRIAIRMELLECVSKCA
Described as above. The note with it: remark: other sources report otherwise.

Data set [3] concerns the molecule itself. Described as above.
In data set [4] the target is T2, recombinant RS1 secreted from stably transformed Sf21 insect cells (human), O15537.
T2 chain: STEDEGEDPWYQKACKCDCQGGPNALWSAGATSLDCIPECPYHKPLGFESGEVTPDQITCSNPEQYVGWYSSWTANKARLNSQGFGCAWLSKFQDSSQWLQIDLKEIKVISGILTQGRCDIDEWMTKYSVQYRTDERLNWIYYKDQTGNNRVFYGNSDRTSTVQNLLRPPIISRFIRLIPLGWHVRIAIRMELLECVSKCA
In words: non-reducing SDS gel electrophoresis with Coomassie Blue staining. Particulars: remark: other sources report otherwise.

For data set [5], the target named is T2, recombinant RS1 secreted from stably …. In words: non-reducing SDS gel electrophoresis with western blot. The note with it: remark: other sources report otherwise.
The target in data set [6] is T3, RS1 secreted from Weri-retinoblastoma cells (human (endogenous in Weri-Rb1)), O15537.
T3 chain: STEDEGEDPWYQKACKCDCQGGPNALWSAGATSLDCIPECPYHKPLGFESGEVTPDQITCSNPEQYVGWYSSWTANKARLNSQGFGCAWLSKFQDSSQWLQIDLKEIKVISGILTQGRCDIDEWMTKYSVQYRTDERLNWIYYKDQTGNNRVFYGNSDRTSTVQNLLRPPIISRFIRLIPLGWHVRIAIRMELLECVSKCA
The data set is described as above. The note with it: remark: other sources report otherwise.

5 molecules from paper PMC2651826 (Biochemistry, 2008) can be followed below.

For orientation: stoichiometry N means the number of molecules, sites or subunits per partner or assembly. Regarding “RS1 from retinal membrane extracts (natural protein)”, in data set [1], the stoichiometry N stood at 8.

B1: wild-type RS1 (retinoschisin), secreted from HEK 293 cells, O15537 24-224 (natural protein)
chain: STEDEGEDPWYQKACKCDCQGGPNALWSAGATSLDCIPECPYHKPLGFESGEVTPDQITCSNPEQYVGWYSSWTANKARLNSQGFGCAWLSKFQDSSQWLQIDLKEIKVISGILTQGRCDIDEWMTKYSVQYRTDERLNWIYYKDQTGNNRVFYGNSDRTSTVQNLLRPPIISRFIRLIPLGWHVRIAIRMELLECVSKCA
The molecule B1 registered a stoichiometry N in data set [2] of 8.

B2: RS1 C59S/C223S double cysteine mutant (natural protein, human, UniProt O15537 24-224, looked up)
chain: STEDEGEDPWYQKACKCDCQGGPNALWSAGATSLDSIPECPYHKPLGFESGEVTPDQITCSNPEQYVGWYSSWTANKARLNSQGFGCAWLSKFQDSSQWLQIDLKEIKVISGILTQGRCDIDEWMTKYSVQYRTDERLNWIYYKDQTGNNRVFYGNSDRTSTVQNLLRPPIISRFIRLIPLGWHVRIAIRMELLECVSKSA
Turning to B2, the “stoichiometry N” value in data set [3] worked out at 2.

B3: recombinant RS1 secreted from stably transformed Sf21 insect cells, O15537 24-224 (natural protein)
chain: STEDEGEDPWYQKACKCDCQGGPNALWSAGATSLDCIPECPYHKPLGFESGEVTPDQITCSNPEQYVGWYSSWTANKARLNSQGFGCAWLSKFQDSSQWLQIDLKEIKVISGILTQGRCDIDEWMTKYSVQYRTDERLNWIYYKDQTGNNRVFYGNSDRTSTVQNLLRPPIISRFIRLIPLGWHVRIAIRMELLECVSKCA
Turning to B3, the stoichiometry N in data set [4] and in data set [5] was 8 throughout.

B4: RS1 secreted from Weri-retinoblastoma cells, O15537 24-224 (natural protein)
chain: STEDEGEDPWYQKACKCDCQGGPNALWSAGATSLDCIPECPYHKPLGFESGEVTPDQITCSNPEQYVGWYSSWTANKARLNSQGFGCAWLSKFQDSSQWLQIDLKEIKVISGILTQGRCDIDEWMTKYSVQYRTDERLNWIYYKDQTGNNRVFYGNSDRTSTVQNLLRPPIISRFIRLIPLGWHVRIAIRMELLECVSKCA
As for B4, in data set [6], the stoichiometry N was found to be 8.
